Assay results: patent US20200354457A1 (Hoffmann-La Roche, published 2020)
Where a chain is given by its changes, count along the chain named. “And” between values parts separate entries of the source, which are not always exact repeats. Identical values can stand only once. One block for each binder: values may come before it.

Legend:
[1] = biological target: T1, biotinylated MCSP antigen (amino acids 1553 to 2184 of matured melanoma-associated chondroitin sulfate … (Homo sapiens (Human), UniProt Q6UVK1 1582-2213, limits assumed, biotin on the C-terminal avi-tag)); experiment: SPR (ProteOn XPR36), biotinylated MCSP captured on NLC chip, purified aVH as analyte, 25 C
T1 construct: The entry may include the leader; also called recombinant MCSP
T1 sequence: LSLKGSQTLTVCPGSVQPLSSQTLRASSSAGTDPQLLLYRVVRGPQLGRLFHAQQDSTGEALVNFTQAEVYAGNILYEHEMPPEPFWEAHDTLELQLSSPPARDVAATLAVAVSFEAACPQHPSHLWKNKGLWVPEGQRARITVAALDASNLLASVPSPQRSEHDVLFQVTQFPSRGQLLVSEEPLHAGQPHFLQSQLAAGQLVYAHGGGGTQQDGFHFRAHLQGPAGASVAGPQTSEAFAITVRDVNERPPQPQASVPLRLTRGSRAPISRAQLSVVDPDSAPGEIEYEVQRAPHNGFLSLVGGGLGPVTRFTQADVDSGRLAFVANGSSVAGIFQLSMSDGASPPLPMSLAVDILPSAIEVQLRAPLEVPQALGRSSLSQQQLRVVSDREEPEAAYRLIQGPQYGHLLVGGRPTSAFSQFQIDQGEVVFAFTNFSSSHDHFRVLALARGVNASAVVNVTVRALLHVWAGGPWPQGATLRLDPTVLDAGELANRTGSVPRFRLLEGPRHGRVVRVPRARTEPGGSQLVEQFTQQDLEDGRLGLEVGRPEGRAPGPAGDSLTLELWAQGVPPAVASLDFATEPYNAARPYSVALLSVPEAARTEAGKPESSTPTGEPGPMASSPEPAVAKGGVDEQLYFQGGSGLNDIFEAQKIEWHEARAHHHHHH

[2] = biological target: T2, soluble human Lag3-IgG1-Fc with biotinylated C-terminal Avi-tag (human, biotin on the C-terminal Avi-tag); experiment: SPR (ProteOn XPR36), biotinylated LAG3-Fc captured on NLC chip, purified aVH as analyte, 25 C;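 also: One-shot kinetics in PBST running buffer, rates fitted by 1:1 Langmuir model fitting association and dissociation together, KD as koff/kon, biotinylated Fc surface as negative control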
T2 construct: also called LAG3-Fc-avi; biotinylated LAG3-Fc antigen

[3] = biological target: T3, human LAG3 on recombinant CHO cells (human, UniProt P18627 23-525); experiment: cell ELISA on CHO cells expressing human LAG3;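 also: bivalent Fc-format binders titrated in threefold steps from 6 µg/mL, incubated with the cells 2 h at 4 °C, bound antibody detected by HRP-coupled anti-human IgG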
T3 construct: whole, on cells; also called Lag3 cells; recombinant CHO cells expressing Lag3
T3 sequence (looked up): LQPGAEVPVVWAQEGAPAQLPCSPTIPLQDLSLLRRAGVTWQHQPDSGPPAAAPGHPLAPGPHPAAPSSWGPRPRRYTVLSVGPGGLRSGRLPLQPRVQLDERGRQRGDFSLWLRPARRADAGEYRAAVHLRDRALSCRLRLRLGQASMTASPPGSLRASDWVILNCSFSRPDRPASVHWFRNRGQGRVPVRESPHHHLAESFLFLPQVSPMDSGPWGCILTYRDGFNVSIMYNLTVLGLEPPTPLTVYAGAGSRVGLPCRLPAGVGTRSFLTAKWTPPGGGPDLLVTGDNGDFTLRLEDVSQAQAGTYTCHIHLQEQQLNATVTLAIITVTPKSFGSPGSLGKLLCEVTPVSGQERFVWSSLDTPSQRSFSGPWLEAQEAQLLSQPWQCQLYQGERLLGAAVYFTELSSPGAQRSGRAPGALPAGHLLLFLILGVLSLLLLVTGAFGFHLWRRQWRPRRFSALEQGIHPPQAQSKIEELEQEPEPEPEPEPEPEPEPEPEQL

[4] = biological target: T4, recombinant human LAG3 Fc Chimera Protein (R&D Systems, 2319-L3) (human, UniProt P18627 23-450); experiment: SPR (Biacore), aVH-Fc captured by anti-human Fc, human LAG-3 Fc chimera as analyte, 25 C
T4 construct: Bought reagent
T4 sequence (looked up): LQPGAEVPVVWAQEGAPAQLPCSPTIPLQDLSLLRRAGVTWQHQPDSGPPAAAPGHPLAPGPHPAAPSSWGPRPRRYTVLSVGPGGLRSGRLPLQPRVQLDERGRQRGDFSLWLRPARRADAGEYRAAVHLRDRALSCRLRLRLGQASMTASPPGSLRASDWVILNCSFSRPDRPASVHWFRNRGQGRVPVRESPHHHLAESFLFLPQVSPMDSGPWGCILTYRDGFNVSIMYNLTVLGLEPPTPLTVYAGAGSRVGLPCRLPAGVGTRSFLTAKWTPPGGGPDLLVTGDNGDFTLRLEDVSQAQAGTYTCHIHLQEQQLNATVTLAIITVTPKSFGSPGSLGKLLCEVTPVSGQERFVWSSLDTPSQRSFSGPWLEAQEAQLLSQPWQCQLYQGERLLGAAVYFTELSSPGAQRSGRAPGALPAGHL

[5] = biological target: T5, murine LAG3-Fc antigen (R&D Systems, 3328-L3-050) (murine, UniProt Q61790 24-442); experiment: ELISA using murine LAG3-Fc antigen
T5 construct: Bought reagent
T5 sequence (looked up): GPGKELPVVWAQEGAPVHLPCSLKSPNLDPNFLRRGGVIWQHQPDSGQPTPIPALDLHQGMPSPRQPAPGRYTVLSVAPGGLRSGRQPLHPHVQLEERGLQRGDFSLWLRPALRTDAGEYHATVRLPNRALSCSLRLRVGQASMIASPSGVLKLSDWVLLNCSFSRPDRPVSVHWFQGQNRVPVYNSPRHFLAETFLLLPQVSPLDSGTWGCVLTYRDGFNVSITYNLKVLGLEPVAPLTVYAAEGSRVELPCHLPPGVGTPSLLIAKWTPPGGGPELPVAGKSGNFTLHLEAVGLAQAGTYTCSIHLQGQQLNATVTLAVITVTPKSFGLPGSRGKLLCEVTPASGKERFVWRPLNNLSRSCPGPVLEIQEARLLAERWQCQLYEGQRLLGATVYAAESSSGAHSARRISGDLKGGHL

[6] = biological target: T2, soluble human Lag3-IgG1-Fc with …; experiment: A375 MHCII competition ELISA at 3 µg/ml, biotinylated Lag3 250 ng/ml; competitor MHCII on A375 cells
[7] = biological target: T4, recombinant human LAG3 Fc Chimera …; experiment: ELISA, plate coated with human LAG3 Fc chimera
[8] = biological target: T2, soluble human Lag3-IgG1-Fc with …; experiment: A375 MHCII competition ELISA, biotinylated Lag3 250 ng/ml; competitor MHCII on A375 cells

Kd [1]: 8 nM
koff [1]: 0.00339 s⁻¹
kon [1]: 458000 M⁻¹ s⁻¹
B1: MCSP-specific disulfide-stabilized aVH clone 2 (VHH)
VHH: EVQLVESGGGLVQPGGSLRLSCAASSFNIKDTYIGWVRRAPGKGTELVASIDCIYGYTRYADSVKGRFTISCDTSKNTAYLQMNSLRAEDTAVYYCAAQGYRLHYWGQGTTVTVSS
notes: Autonomous human VH domain purified from E. coli by IMAC

Kd [2]: 55 nM
koff [2]: 0.0138 s⁻¹
kon [2]: 251000 M⁻¹ s⁻¹
B2: LAG3 P11A2 aVH domain (VHH)
VHH: EVQLVESGGGLVQPGGSLRLSCAASSFNIKDTYIGWVRRAPGKGTELVAEIACHEGTTRYADSVKGRFTISCDTSKNTAYLQMNSLRAEDTAVYYCANTEYDDIFDYWGQGTTVTVSS

EC50 [3]: 0.0603 µg/mL and 0.8 nM
OD max [3]: 1.2 OD
koff [4]: 6.8e-05 s⁻¹
t1/2 [4]: 2.83 h
binding result [5]: no binding
% Inhibition [6]: 91%
EC50 [7]: 0.143 µg/mL and 1.9 nM
OD max [7]: 1.1 OD
IC50 [8]: 0.155 µg/mL and 2.1 nM
B3: bivalent P11E2 aVH-Fc (Fc fusion)
chain: EVQLVESGGGLVQPGGSLRLSCAASGFNIKDTCIGWVRRAPGKGTELVAEICDDIGYTRYADSVKGRFTISADTSKNTAYLQMNSLRAEDTAVYYCASQEHQWSFKYWGQGTTVTVSSGGGGSGGGGSDKTHTCPPCPAPEAAGGPSVFLFPPKPKDTLMISRTPEVTCVVVDVSHEDPEVKFNWYVDGVEVHNAKTKPREEQYNSTYRVVSVLTVLHQDWLNGKEYKCKVSNKALGAPIEKTISKAKGQPREPQVYTLPPSRDELTKNQVSLTCLVKGFYPSDIAVEWESNGQPENNYKTTPPVLDSDGSFFLYSKLTVDKSRWQQGNVFSCSVMHEALHNHYTQKSLSLSPGK

EC50 [3]: 0.0375 µg/mL and 0.5 nM
OD max [3]: 1.3 OD
koff [4]: 2.4e-05 s⁻¹
t1/2 [4]: 8.16 h
binding result [5]: no binding
% Inhibition [6]: 97.2%
EC50 [7]: 0.121 µg/mL and 1.6 nM
OD max [7]: 1.9 OD
IC50 [8]: 0.086 µg/mL and 1.1 nM
B4: bivalent P11E9 aVH-Fc (Fc fusion)
chain: B3 chain with D53H, S98A, Q99E, Q102V, W103A, K106E

Kd [1]: 48 nM
koff [1]: 0.0142 s⁻¹
kon [1]: 295000 M⁻¹ s⁻¹
B5: MCSP-specific disulfide-stabilized aVH clone 57.1 (VHH)
VHH: EVQLVESGGGLVQPGGSLRLSCAASGFNIKQNCIEWVRRAPGKGTELVANICHDIGSTRYADSVKGRFTISADTSKNTAYLQMNSLRAEDTAVYYCAAWEQKGFNYWGQGTTVTVSS
notes: Autonomous human VH domain purified from E. coli

Kd [1]: 109 nM
koff [1]: 0.0163 s⁻¹
kon [1]: 150000 M⁻¹ s⁻¹
B6: MCSP-specific disulfide-stabilized aVH clone 44 (VHH)
VHH: EVQLVESGGGLVQPGGSLRLSCAASGFNIKDGYIDWVRRAPGKGTELVASIECTNGRATRYADSVKGRFTISCDTSKNTAYLQMNSLRAEDTAVYYCAYAGIGYYFYYWGQGTTVTVSS
notes: as for B5

Kd [2]: 43 nM
koff [2]: 0.00217 s⁻¹
kon [2]: 62700 M⁻¹ s⁻¹
B7: LAG3 21B11 aVH domain (VHH)
VHH: EVQLVESGGGLVQPGGSLRLSCAASGFNIKDTCIGWVRRAPGKGTELVAEICQDIGYTRYADSVKGRFTISADTSKNTAYLQMNSLRAEDTAVYYCAADESVDNFKYWGQGTTVTVSS

Kd [2]: 36.7 nM
koff [2]: 0.00157 s⁻¹
kon [2]: 42800 M⁻¹ s⁻¹
B8: LAG3 P11E2 aVH domain (VHH)
VHH: B7 VHH with Q53D, A98S, D99Q, S101H, V102Q, D103W, N104S

Kd [2]: 38.5 nM
koff [2]: 0.00217 s⁻¹
kon [2]: 56200 M⁻¹ s⁻¹
B9: LAG3 P10C3 aVH domain (VHH)
VHH: B7 VHH with Q53T, I55A, D99S, V102P, D103S, N104G, K106R

Kd [2]: 311 nM
koff [2]: 0.00493 s⁻¹
kon [2]: 15900 M⁻¹ s⁻¹
B10: LAG3 17D7 aVH domain (VHH)
VHH: B7 VHH with Q53T, D99G, S101G, V102S, D103S, N104G, K106H

Kd [2]: 27 nM
koff [2]: 0.00383 s⁻¹
kon [2]: 144000 M⁻¹ s⁻¹
B11: LAG3 P10D1 aVH domain (VHH)
VHH: B7 VHH with N28S, G35A, Q53E, D99K, S101A, V102G, D103V, N104G, K106D
notes: also called P110D1

Kd [2]: 6.81 nM
koff [2]: 0.000656 s⁻¹
kon [2]: 96300 M⁻¹ s⁻¹
B12: LAG3 P11E9 aVH domain (VHH)
VHH: B7 VHH with Q53H, D99E, S101H, D103A, N104S, K106E

Kd [2]: 86 nM
koff [2]: 0.00314 s⁻¹
kon [2]: 36500 M⁻¹ s⁻¹
B13: LAG3 9B4 aVH domain (VHH)
VHH: B7 VHH with D99V, S101V, V102A, D103E, N104Y, K106E

Kd [2]: 766 nM
koff [2]: 0.00466 s⁻¹
kon [2]: 6080 M⁻¹ s⁻¹
B14: LAG3 19G3 aVH domain (VHH)
VHH: B7 VHH with D31Y, T32Q, Q53S, D54Y, I55D, D99E, D103E, N104G, K106I
notes: also called P19G3

Kd [2]: 13.7 nM
koff [2]: 0.000387 s⁻¹
kon [2]: 28200 M⁻¹ s⁻¹
B15: LAG3 P21A03 aVH domain (VHH)
VHH: B7 VHH with Q53E, D99N, S101H, V102S, D103V, N104G, K106N
notes: also called 21A3

Kd [2]: 5.1 nM
koff [2]: 0.000829 s⁻¹
kon [2]: 162000 M⁻¹ s⁻¹
B16: LAG3 P9G1 aVH domain (VHH)
VHH: B7 VHH with A98G, D99E, S101G, V102A, D103T
